According to article PMC12038006 (Nature Communications, 2025):

Target: T1, Rv1272c from Mycobacterium tuberculosis (Mycobacterium tuberculosis (Mtb) H37Rv, UniProt P9WQJ3 1-631)
T1 construct: also called subunit of Rv1273c/72c; not shown: Flag, C-terminal, kept
T1 sequence: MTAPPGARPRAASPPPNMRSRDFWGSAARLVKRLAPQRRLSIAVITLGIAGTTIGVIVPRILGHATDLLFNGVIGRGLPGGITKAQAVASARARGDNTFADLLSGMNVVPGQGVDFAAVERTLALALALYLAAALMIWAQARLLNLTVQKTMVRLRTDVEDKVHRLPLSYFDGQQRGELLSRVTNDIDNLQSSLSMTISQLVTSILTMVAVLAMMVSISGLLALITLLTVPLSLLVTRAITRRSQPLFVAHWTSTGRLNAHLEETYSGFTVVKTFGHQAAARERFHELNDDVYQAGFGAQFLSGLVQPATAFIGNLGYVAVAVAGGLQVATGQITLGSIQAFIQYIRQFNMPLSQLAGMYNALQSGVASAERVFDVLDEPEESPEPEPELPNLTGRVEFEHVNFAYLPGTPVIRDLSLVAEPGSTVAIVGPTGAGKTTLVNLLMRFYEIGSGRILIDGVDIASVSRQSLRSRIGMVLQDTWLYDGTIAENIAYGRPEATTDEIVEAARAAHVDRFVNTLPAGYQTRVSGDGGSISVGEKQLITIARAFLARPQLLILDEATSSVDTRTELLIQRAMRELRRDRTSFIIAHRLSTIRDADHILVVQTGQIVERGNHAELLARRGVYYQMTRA
Test: SEC
Details: both partners purified

B1: Rv1273c from Mycobacterium tuberculosis (natural protein)
chain: MLLALLRQHIRPYRRLVAMLMMLQLVSTLASLYLPTVNAAIVDDGVAKGDTATIVRLGAVMLGVTGLQVLCAIGAVYLGSRTGAGFGRDLRSAMFEHIITFSERETARFGAPTLLTRSTNDVRQILFLVQMTATVLVTAPIMCVGGIIMAIHQEAALTWLLLVSVPILAVANYWIISHMLPLFRRMQSLIDGINRVMRDQLSGVRVVRAFTREGYERDKFAQANTALSNAALSAGNWQALMLPVTTLTINASSVALIWFGGLRIDSGQMQVGSLIAFLSYFAQILMAVLMATMTLAVLPRASVCAERITEVLSTPAALGNPDNPKFPTDGVTGVVRLAGATFTYPGADCPVLQDISLTARPGTTTAIVGSTGSGKSTLVSLICRLYDVTAGAVLVDGIDVREYHTERLWSAIGLVPQRSYLFSGTVADNLRYGGGPDQVVTEQEMWEALRVAAADGFVQTDGLQTRVAQGGVNFSGGQRQRLAIARAVIRRPAIYVFDDAFSALDVHTDAKVHASLRQVSGDATIIVVTQRISNAAQADQVIVVDNGKIVGTGTHETLLADCPTYAEFAASQSLSATVGGVG
notes: also called subunit of Rv1273c/72c
  stoichiometry N: 1
